Patent publication US20180362645A1 (Amgen, published 2018)
“And” between values parts separate entries of the source, which are not always exact repeats. Identical values can stand only once. Where no end group is shown, it is not given here.

T1: human pituitary adenylate cyclase-activating polypeptide type I receptor (human, UniProt P41586 21-468)
T1 construct: whole, on cells; On SH-SY5Y or recombinant CHO cells (cAMP assay), as membranes of hPAC-1 AequoScreen CHO cells (radioligand assay) and on CHOK1/huPac1 whole cells (KinExA); also called human PAC1; hPAC1
T1 sequence (looked up): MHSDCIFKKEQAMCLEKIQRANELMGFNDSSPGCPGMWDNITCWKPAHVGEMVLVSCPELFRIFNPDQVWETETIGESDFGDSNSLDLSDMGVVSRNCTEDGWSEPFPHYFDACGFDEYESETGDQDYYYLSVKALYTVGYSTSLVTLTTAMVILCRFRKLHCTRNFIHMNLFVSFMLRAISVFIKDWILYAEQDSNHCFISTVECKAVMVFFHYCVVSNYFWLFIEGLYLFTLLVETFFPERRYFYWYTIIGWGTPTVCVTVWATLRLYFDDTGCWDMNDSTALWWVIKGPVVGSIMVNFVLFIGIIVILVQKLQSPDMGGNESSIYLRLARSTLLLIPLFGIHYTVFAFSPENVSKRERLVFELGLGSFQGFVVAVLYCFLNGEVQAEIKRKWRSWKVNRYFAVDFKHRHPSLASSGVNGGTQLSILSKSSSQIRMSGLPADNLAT

T2: VPAC2
T2 sequence (P41587 whole entry, species assumed, looked up): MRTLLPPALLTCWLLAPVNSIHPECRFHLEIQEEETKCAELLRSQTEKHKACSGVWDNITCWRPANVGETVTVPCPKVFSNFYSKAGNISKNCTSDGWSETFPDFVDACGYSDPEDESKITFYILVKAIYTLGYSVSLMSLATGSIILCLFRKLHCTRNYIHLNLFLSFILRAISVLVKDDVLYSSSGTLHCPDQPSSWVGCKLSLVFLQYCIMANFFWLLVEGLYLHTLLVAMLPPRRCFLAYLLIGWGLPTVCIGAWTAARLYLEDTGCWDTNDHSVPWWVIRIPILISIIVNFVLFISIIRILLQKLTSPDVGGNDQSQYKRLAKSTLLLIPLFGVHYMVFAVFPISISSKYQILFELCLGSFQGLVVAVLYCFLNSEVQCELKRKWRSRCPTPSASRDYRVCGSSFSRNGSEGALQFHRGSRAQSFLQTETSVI

T3: human VPAC1 (human, UniProt P32241 31-457)
T3 sequence (looked up): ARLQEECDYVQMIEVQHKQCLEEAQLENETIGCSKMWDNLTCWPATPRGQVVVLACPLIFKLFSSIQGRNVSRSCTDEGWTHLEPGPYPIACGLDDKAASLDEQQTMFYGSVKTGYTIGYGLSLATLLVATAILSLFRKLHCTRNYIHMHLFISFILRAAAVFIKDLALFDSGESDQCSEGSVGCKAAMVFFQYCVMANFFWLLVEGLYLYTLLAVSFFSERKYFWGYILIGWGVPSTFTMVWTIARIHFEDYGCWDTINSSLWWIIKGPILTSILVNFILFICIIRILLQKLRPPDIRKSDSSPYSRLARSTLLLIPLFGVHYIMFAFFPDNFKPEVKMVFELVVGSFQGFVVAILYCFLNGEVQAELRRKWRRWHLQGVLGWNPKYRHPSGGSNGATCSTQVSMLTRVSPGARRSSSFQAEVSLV

T4: human VPAC2 (human, UniProt P41587 24-438)
T4 sequence (looked up): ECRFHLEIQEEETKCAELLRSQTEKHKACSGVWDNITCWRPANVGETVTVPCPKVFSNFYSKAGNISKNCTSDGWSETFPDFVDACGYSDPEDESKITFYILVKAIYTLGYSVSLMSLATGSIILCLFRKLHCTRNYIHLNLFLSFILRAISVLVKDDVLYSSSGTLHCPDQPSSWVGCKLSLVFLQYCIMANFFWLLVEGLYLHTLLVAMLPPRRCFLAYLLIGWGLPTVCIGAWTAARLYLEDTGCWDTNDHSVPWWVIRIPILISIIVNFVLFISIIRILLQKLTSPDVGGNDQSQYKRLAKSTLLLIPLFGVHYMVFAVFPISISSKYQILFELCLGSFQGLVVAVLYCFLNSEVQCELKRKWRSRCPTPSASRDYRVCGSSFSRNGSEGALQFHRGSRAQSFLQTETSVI


Experiments:
[1] = molecular target: T1, human pituitary adenylate …; assay: KinExA, CHOK1/huPac1 whole cells
Procedure: Binding of anti-Pac1 antibody with CHOK1/huPac1 cells were tested on KinExA. […] Samples containing anti-Pac1 antibody and whole cells were incubated with rotation at room temperature for 4 hours before 5-minute 220-g centrifugation at 4° C. to separate the whole cells and anti-Pac1 antibody-cell complexes from unbound anti-Pac1 antibody. The supernatants containing free anti-Pac1 antibody were filtered through 0.22 μm filter before loading to the goat-anti-huFc-coated beads on KinExA. […] The binding signal is proportional to the concentration of free anti-Pac1 antibody in solution at each cell density. Equilibrium dissociation constant (KD) was estimated by n-curve analysis in KinExA™ Pro software (Sapidyne Instruments, Inc., Boise, Id.).

[2] = molecular target: T1, human pituitary adenylate …; assay: radioligand competition, hPAC1 CHO membranes; competitor 125I-29A
Procedure: (§1) The plates were incubated at room temperature for 2 hours with shaking at 60 rpm, and then the contents of each well were filtered over 0.5% polyethyleneimine (PEI)-treated (for at least two hours) GF/C 96-well filter plates. The GF/C filter plates were washed five times with ice-cold 50 mM Tris, pH 7.5 and dried in an oven at 55° C. for 1 hour. The bottoms of the GF/C plates were then sealed. 40 μl Microscint™ 20 was added to each well, the tops of the GF/C plates were sealed with TopSeal™-A (a press-on adhesive sealing film), and the GF/C plates were counted with TopCount NXT (Packard). The data were analyzed using Prizm (GraphPad Software Inc.)

[3] = molecular target: T1, human pituitary adenylate …; assay: radioligand competition, hPAC1 CHO membranes; competitor 125I-28A
Procedure: as §1

[4] = molecular target: T1, human pituitary adenylate …; assay: radioligand competition, hPAC1 CHO membranes; competitor 125I-14B
Procedure: as §1

[5] = molecular target: T1, human pituitary adenylate …; assay: radioligand competition, hPAC1 CHO membranes; competitor 125I-01B
Procedure: as §1

[6] = molecular target: T1, human pituitary adenylate …; assay: radioligand competition, hPAC1 CHO membranes; competitor 125I-14A
Procedure: as §1

[7] = molecular target: T1, human pituitary adenylate …; assay: radioligand competition, hPAC1 CHO membranes; competitor 125I-26B
Procedure: as §1

[8] = molecular target: T1, human pituitary adenylate …; assay: radioligand competition, hPAC1 CHO membranes; competitor 125I-26A
Procedure: as §1

[9] = molecular target: T1, human pituitary adenylate …; assay: radioligand competition, hPAC1 CHO membranes; competitor 125I-29B
Procedure: as §1

[10] = molecular target: T1, human pituitary adenylate …; assay: radioligand competition, hPAC1 CHO membranes; competitor 125I-39A
Procedure: as §1

[11] = molecular target: T1, human pituitary adenylate …; assay: radioligand competition, hPAC1 CHO membranes; competitor 125I-39B
Procedure: as §1

VPAC2 = molecular target: T2, VPAC2; assay: cell-based or functional assay
cyno PAC1 = cyno PAC1 (cynomolgus); assay: cell-based or functional assay
human VPAC1 = molecular target: T3, human VPAC1; assay: cell-based or functional assay
human VPAC2 = molecular target: T4, human VPAC2; assay: cell-based or functional assay

Binder	Kd [1]	Ki [2]	Ki [3]	Ki [6]	Ki [8]	Ki [10]	further results
03A (antibody, human IgG2, kappa, V domains shown, also called LC-03 and HC-03) VH: QVQLVESGGGVVQPGRSLRLSCAASGFTFSYYAIHWVRQAPGKGLEWVAVISYDGSNKYYADSVKGRFTISRDNSKNTLYLQMNSLRAEDTAVYYCARGYDLLTGYPDYWGQGTLVTVSS VL: DIQLTQSPSFLSASVGDRVTITCRASQSIGRSLHWYQQKPGKAPKLLIKYASQSLSGVPSRFSGSGSGTEFTLTISSLQPEDFATYYCHQSSRLPFTFGPGTKVDIKR	0.126 nM	0.14 nM	0.01 nM	–	–	–	–
28A (antibody, human IgG2, kappa, V domains shown, also called LC-10 and HC-39) VH: QVQLVESGGGVVQPGRSLRLSCAASGFTFSRYAMHWVRQASGKGLEWVAVISYDGSNKYYADSVKGRFTISRDNSKNTLYLLMSSLRAEDTAVFYCARGYDILTGYPDYWGQGTLVTVSS VL: EIVLTQSPDFQSVTPKEKVTITCRASQSIGRSLHWYQQKPDQSPKLLFKYASQSLSGVPSRFSGSGSGTDFTLTINSLEAEDAATYYCHQSSRLPFTFGPGTKVDIKR	–	0.04 nM	< 0.01 nM	–	–	–	–
29A (antibody, human IgG2, kappa, also called LC-11 and HC-39) heavy: QVQLVESGGGVVQPGRSLRLSCAASGFTFSRYAMHWVRQASGKGLEWVAVISYDGSNKYYADSVKGRFTISRDNSKNTLYLLMSSLRAEDTAVFYCARGYDILTGYPDYWGQGTLVTVSSASTKGPSVFPLAPCSRSTSESTAALGCLVKDYFPEPVTVSWNSGALTSGVHTFPAVLQSSGLYSLSSVVTVPSSNFGTQTYTCNVDHKPSNTKVDKTVERKCCVECPPCPAPPVAGPSVFLFPPKPKDTLMISRTPEVTCVVVDVSHEDPEVQFNWYVDGVEVHNAKTKPREEQFNSTFRVVSVLTVVHQDWLNGKEYKCKVSNKGLPAPIEKTISKTKGQPREPQVYTLPPSREEMTKNQVSLTCLVKGFYPSDIAVEWESNGQPENNYKTTPPMLDSDGSFFLYSKLTVDKSRWQQGNVFSCSVMHEALHNHYTQKSLSLSPGK light: DIQLTQSPSFLSASVGDRVTITCRASQSIGRSLHWYQQKPGKAPKLLFKYASQSLSGVPSRFSGSGSGTEFTLTISSLQPEDFATYYCHQSSRLPFTFGPGTKVDIKRTVAAPSVFIFPPSDEQLKSGTASVVCLLNNFYPREAKVQWKVDNALQSGNSQESVTEQDSKDSTYSLSSTLTLSKADYEKHKVYACEVTHQGLSSPVTKSFNRGEC	0.013 nM	0.04 nM	–	0.07 nM	0.03 nM	0.06 nM	Ki [4]: 0.1 nM; Ki [5]: 0.13 nM; Ki [7]: 0.11 nM; Ki [9]: 0.09 nM; Ki [11]: 0.08 nM
05A (antibody, human IgG2, kappa, V domains shown, also called LC-05 and HC-06) VH: QVQLVESGGGVVQPGRSLRLSCAASGFTFSRFAMHWVRRAPGKGLEWVAVISYDGGNKYYAESVKGRFTISRDNSKNTLNLLMNSLRAEDTALFYCARGYDVLTGYPDYWGQGTLVTVSS VL: DIQLTQSPSFLSASVGDRVTITCRASQSIGRSLHWYQQKPGKAPKLLIKYASQSLSGVPSRFSGSGSGTEFTLTISSLQPEDFATYYCHQSSRLPFTFGPGTKVDIKR	–	0.03 nM	0.02 nM	–	–	–	–
38A (antibody, human IgG2, kappa, V domains shown, also called LC-18 and HC-50) VH: QVQLQESGPGLVKPSQTLSLTCTVSGGSISRGGYYWSWIRQHPGKGLEWIGYIYYSGNTYYNPSLKSRVIISGDTSKNQLSLKLRSVTAADTAVYYCARGGAARGMDVWGQGTTVTVSS VL: not shown	0.016 nM	–	–	0.07 nM	0.07 nM	0.11 nM	–
HSDGIFTDSYSRYRKQMAVKKYLAAVLGKRYKQRVKNK (ligand, UniProt P18509 132-169, looked up, ends and bridges not checked) [PACAP38]	–	–	–	–	–	–	VPAC2 EC50 (agonist activity) (VPAC2): 0.06 nM
26B (antibody, human IgG1, kappa, N297G) heavy: not shown light: DIQLTQSPSFLSASVGDRVTITCRASQSIGRSLHWYQQKPGKAPKLLIKYASQSLSGVPSRFSGSGSGTEFTLTISSLQPEDFATYYCHQSSRLPFTFGPGTKVDIKRTVAAPSVFIFPPSDEQLKSGTASVVCLLNNFYPREAKVQWKVDNALQSGNSQESVTEQDSKDSTYSLSSTLTLSKADYEKHKVYACEVTHQGLSSPVTKSFNRGEC	–	–	–	–	–	–	cyno PAC1 IC50 (cAMP assay) (cyno PAC1): 1.3 nM; hVPAC1 IC50 (cAMP assay) (human VPAC1): > 10000 nM; hVPAC2 IC50 (cAMP assay) (human VPAC2): > 10000 nM
39A (antibody, human IgG2, kappa, also called 39A lot1; 39A lot2) heavy: QVQLQESGPGLVKPSQTLSLTCTVSGGSISSGGYYWSWIRQHPGKGLEWIGYIYYSGNTYYNPSLKSRVTISGDTSKNQFSLKLRSVTAADTAVYYCTRGGAARGMDVWGQGTTVTVSSASTKGPSVFPLAPCSRSTSESTAALGCLVKDYFPEPVTVSWNSGALTSGVHTFPAVLQSSGLYSLSSVVTVPSSNFGTQTYTCNVDHKPSNTKVDKTVERKCCVECPPCPAPPVAGPSVFLFPPKPKDTLMISRTPEVTCVVVDVSHEDPEVQFNWYVDGVEVHNAKTKPREEQFNSTFRVVSVLTVVHQDWLNGKEYKCKVSNKGLPAPIEKTISKTKGQPREPQVYTLPPSREEMTKNQVSLTCLVKGFYPSDIAVEWESNGQPENNYKTTPPMLDSDGSFFLYSKLTVDKSRWQQGNVFSCSVMHEALHNHYTQKSLSLSPGK light: not shown	0.036 nM	–	–	0.2 nM	0.13 nM	0.16 nM	Ki [4]: 0.24 nM and 0.43 nM; Ki [5]: 0.3 nM and 0.15 nM; Ki [7]: 0.17 nM and 0.14 nM; Ki [9]: 0.08 nM and 0.14 nM; Ki [11]: 0.2 nM and 0.18 nM
14B (antibody, human IgG1, kappa, N297G) heavy: not shown light: EIVLTQSPATLSLSPGERATLSCRASQSVGRSLHWYQQKPGQAPRLLIKYASQSLSGIPARFSGSGSGTDFTLTISSLEPEDFAVYYCHQSSRLPFTFGPGTKVDIKRTVAAPSVFIFPPSDEQLKSGTASVVCLLNNFYPREAKVQWKVDNALQSGNSQESVTEQDSKDSTYSLSSTLTLSKADYEKHKVYACEVTHQGLSSPVTKSFNRGEC	–	–	–	–	–	–	cyno PAC1 IC50 (cAMP assay) (cyno PAC1): 0.6 nM; hVPAC1 IC50 (cAMP assay) (human VPAC1): > 10000 nM; hVPAC2 IC50 (cAMP assay) (human VPAC2): > 10000 nM
